Test results taken from publication PMC3733885, “Structures of an Apo and a Binary Complex of an Evolved Archeal B Family DNA Polymerase Capable of Synthesising Highly Cy-Dye Labelled DNA”.

Target: T1, Pfu-E10 DNA polymerase (evolved Pfu polB variant) (Pyrococcus furiosus, UniProt P61875 1-775, R407I)
T1 sequence: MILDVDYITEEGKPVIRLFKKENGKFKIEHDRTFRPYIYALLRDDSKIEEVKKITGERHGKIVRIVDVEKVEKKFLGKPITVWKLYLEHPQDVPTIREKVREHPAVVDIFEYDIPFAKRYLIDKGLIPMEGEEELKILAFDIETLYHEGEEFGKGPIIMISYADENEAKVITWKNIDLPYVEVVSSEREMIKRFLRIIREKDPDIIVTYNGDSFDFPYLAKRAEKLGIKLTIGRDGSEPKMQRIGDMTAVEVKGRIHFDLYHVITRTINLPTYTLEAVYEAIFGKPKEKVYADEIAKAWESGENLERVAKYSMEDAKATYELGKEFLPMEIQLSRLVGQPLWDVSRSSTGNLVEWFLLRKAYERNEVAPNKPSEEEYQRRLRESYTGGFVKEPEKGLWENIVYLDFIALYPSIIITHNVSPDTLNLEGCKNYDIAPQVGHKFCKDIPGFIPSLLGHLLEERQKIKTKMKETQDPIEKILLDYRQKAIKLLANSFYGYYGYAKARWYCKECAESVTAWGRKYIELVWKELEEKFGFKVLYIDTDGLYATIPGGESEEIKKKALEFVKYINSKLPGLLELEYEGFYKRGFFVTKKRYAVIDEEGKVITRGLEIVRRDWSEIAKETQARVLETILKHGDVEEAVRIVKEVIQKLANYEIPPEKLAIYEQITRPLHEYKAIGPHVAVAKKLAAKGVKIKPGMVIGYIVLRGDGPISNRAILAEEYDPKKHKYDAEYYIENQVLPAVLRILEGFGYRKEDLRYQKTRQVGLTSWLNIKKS
Test: X-ray crystallography (2.9 A); binary complex; 10 mM dCTP in crystallisation medium but no dNTP or metal ion seen at active site; Complex: 20 mM Tris, 50 mM NaCl, 5 mM MgCl2, 5% glycerol, 1 mM dCTP, 1:5 protein:DNA, 4 C overnight; crystals: 0.1 M Na cacodylate pH 6.5, 0.1 M Na citrate, 30% isopropanol, 10 mM dCTP
Details: protein: recombinant; 5' overhang 3 nt (template)

B1: primer:template duplex (crystal) (dsDNA)
DNA 1: ACGGGTAAGCA
DNA 2: TGCTTACC
modifications: 3'-terminal C of primer is 2',3'-dideoxycytidine (DOC)
binding result: binds
